Reference: patent US20110044995A1 (KUMAMOTO UNIVERSITY, published 2011)

Tests used:
[1] = target: envelope of HIV-1 strain IIIB (HIV-1 strain IIIB); assay: cell-based or functional assay; set-up: unit not given beside the values
[2] = target: envelope of HIV-1 strain 89.6 (HIV-1 strain 89.6, UniProt Q73372 32-853); assay: cell-based or functional assay; set-up: unit not given beside the values
[3] = target: envelope of HIV-1 strain SF162 (HIV-1 strain SF162, UniProt P19550 32-847); assay: cell-based or functional assay; set-up: unit not given beside the values
[4] = target: envelope of HIV-1 strain BaL (HIV-1 strain BaL); assay: cell-based or functional assay; set-up: unit not given beside the values
[5] = target: envelope of HIV-1 strain JR-FL (JRFLwt), on virus (HIV-1 strain JR-FL); assay: cell-based or functional assay; set-up: unit not given beside the values
[6] = target: envelope of HIV-1 strain JRFLGPER; assay: cell-based or functional assay; set-up: unit not given beside the values
[7] = target: envelope of HIV-1 strain YU2 (HIV-1 strain YU2, UniProt P35961 32-843); assay: cell-based or functional assay; set-up: unit not given beside the values
[8] = target: envelope of HIV-1 clinically isolated strain MTA; assay: cell-based or functional assay; set-up: unit not given beside the values
[9] = target: envelope of HIV-1 clinically isolated strain MOKW; assay: cell-based or functional assay; set-up: unit not given beside the values
[10] = target: envelope of HIV-1 clinically isolated strain YKI; assay: cell-based or functional assay; set-up: unit not given beside the values
[11] = target: envelope of HIV-1 clinically isolated strain YIS; assay: cell-based or functional assay; set-up: unit not given beside the values
[12] = target: envelope of HIV-1 clinically isolated strain MIS; assay: cell-based or functional assay; set-up: unit not given beside the values
[13] = target: envelope of HIV-1 clinically isolated strain kKGO; assay: cell-based or functional assay; set-up: unit not given beside the values
[14] = target: envelope of HIV-1 clinically isolated strain KMT; assay: cell-based or functional assay; set-up: unit not given beside the values
[15] = target: envelope of HIV-1 clinically isolated strain TR43; assay: cell-based or functional assay; set-up: unit not given beside the values
[16] = target: T1, envelope of HIV-2 strain ROD (HIV-2 strain ROD, UniProt P04577 20-858); assay: cell-based or functional assay; set-up: unit not given beside the values
T1 sequence: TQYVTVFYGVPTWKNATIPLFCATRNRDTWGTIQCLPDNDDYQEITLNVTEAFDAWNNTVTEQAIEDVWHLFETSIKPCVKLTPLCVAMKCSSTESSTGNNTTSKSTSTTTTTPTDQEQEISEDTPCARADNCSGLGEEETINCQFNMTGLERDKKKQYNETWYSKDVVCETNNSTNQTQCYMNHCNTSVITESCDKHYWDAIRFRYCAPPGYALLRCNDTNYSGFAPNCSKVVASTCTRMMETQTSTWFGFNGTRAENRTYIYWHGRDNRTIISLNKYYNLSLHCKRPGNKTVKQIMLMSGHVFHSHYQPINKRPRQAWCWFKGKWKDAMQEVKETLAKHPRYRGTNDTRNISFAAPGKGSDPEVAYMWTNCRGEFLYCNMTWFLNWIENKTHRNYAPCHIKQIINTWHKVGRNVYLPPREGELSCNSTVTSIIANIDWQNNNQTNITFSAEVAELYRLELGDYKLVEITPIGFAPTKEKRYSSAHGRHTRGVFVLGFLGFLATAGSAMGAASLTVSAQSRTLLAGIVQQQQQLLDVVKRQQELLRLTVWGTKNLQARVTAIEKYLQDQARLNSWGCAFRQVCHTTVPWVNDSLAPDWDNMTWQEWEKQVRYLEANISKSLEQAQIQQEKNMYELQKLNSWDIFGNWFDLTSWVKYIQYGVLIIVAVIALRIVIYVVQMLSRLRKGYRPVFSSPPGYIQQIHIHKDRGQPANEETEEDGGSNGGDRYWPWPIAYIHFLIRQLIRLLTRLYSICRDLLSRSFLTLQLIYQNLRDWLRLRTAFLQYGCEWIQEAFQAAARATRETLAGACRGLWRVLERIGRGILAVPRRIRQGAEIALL

[17] = target: envelope of HIV-2 strain EHO (HIV-2 strain EHO); assay: cell-based or functional assay; set-up: unit not given beside the values
[18] = target: envelope of standard panel pseudotyped virus SVPB5 (HIV-1 subtype B); assay: cell-based or functional assay
[19] = target: envelope of standard panel pseudotyped virus SVPB6 (HIV-1 subtype B); assay: cell-based or functional assay
[20] = target: envelope of standard panel pseudotyped virus SVPB8 (HIV-1 subtype B); assay: cell-based or functional assay
[21] = target: envelope of standard panel pseudotyped virus SVPB11 (HIV-1 subtype B); assay: cell-based or functional assay
[22] = target: envelope of standard panel pseudotyped virus SVPB12 (HIV-1 subtype B); assay: cell-based or functional assay
[23] = target: envelope of standard panel pseudotyped virus SVPB13 (HIV-1 subtype B); assay: cell-based or functional assay
[24] = target: envelope of standard panel pseudotyped virus SVPB14 (HIV-1 subtype B); assay: cell-based or functional assay
[25] = target: envelope of standard panel pseudotyped virus SVPB15 (HIV-1 subtype B); assay: cell-based or functional assay
[26] = target: envelope of standard panel pseudotyped virus SVPB16 (HIV-1 subtype B); assay: cell-based or functional assay
[27] = target: envelope of standard panel pseudotyped virus SVPB17 (HIV-1 subtype B); assay: cell-based or functional assay
[28] = target: envelope of standard panel pseudotyped virus SVPB18 (HIV-1 subtype B); assay: cell-based or functional assay
[29] = target: T2, V3 peptide NNT20 (HIV-1 strain JR-FL); assay: V3-peptide ELISA, NNT20 coated at 5 µg/ml
T2 construct: Coated on the plate at 5 µg/ml
T2 peptide: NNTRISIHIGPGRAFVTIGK

[30] = target: T3, monomeric gp120 (gp120-SF2; Austral Biologicals) (HIV-1 strain SF2, UniProt P03378 32-509); assay: gp120-capture ELISA with or without 0.5 µg/ml sCD4
T3 construct: domain: gp120; also called gp120 monomer

B1: 5G2 (antibody, IgG1, V domains shown)
VH: EVQLVESGGGVVRPGNSLRLSCAASGIIFSTANLHWLRHVPGKGLEWVAIISYDGHRQYYADLVKGRFTISRDNSKNTLHLQMDGLTSDDTAVYYCAKDGADENNLGPAFDYWGRGTLVTVSS
VL: EIVLTQSPATLSVSPGEGATLSCRASQSISSNLAWYQQKPGQAPRLLIYGASTGATGIPARFSGSGSGTDFTLTISRLEPEDFAIYYCQQYGSLPITFGQGTRLEIKR
- IC50, neutralizing activity (MTT assay) [1]: > 50
- IC50, neutralizing activity (MTT assay) [2]: 14
- IC50, neutralizing activity (MTT assay) [3]: 0.91
- IC50, neutralizing activity (MTT assay) [4]: 5.8
- IC50, neutralizing activity (MTT assay) [5]: 37
- IC50, neutralizing activity (MTT assay) [6]: > 50
- IC50, neutralizing activity (MTT assay) [7]: > 50
- IC50, neutralizing activity (MTT assay) [8]: 0.009
- IC50, neutralizing activity (MTT assay) [9]: 0.012
- IC50, neutralizing activity (MTT assay) [10]: 1
- IC50, neutralizing activity (MTT assay) [11]: > 50
- IC50, neutralizing activity (MTT assay) [12]: > 50
- IC50, neutralizing activity (MTT assay) [13]: > 50
- IC50, neutralizing activity (MTT assay) [14]: > 50
- IC50, neutralizing activity (MTT assay) [15]: > 50
- IC50, neutralizing activity (MTT assay) [16]: > 50
- IC50, neutralizing activity (MTT assay) [17]: > 50
- IC50 in TZM-bl cells [18]: 10.1 µg/mL
- IC50 in TZM-bl cells [19]: > 50 µg/mL
- IC50 in TZM-bl cells [20]: > 50 µg/mL
- IC50 in TZM-bl cells [21]: > 50 µg/mL
- IC50 in TZM-bl cells [22]: > 50 µg/mL
- IC50 in TZM-bl cells [23]: > 50 µg/mL
- IC50 in TZM-bl cells [24]: > 50 µg/mL
- IC50 in TZM-bl cells [25]: > 50 µg/mL
- IC50 in TZM-bl cells [26]: > 50 µg/mL
- IC50 in TZM-bl cells [27]: 50 µg/mL
- IC50 in TZM-bl cells [28]: 11.5 µg/mL
- binding result [29]: binds
- binding result [30]: binds
